Measured values taken from the RNAGym collection of RNA variant scans (doi:10.1093/molbev/msab373).

B1: Azoarcus group I ribozyme (parent)
chain: GUGCCUUGCGCCGGGAAACCACGCAAGGGAUGGUGUCAAAUUCGGCGAAACCUAAGCGCCCGCCCGGGCGUAUGGCAACGCCGAGCCAAGCUUCGGCGCCUGCGCCGAUGAAGGUGUAGAGACUAGACGGCACCCACCUAAGGCAAACGCUAUGGUGAAGGCAUAGUCCAGGGAGUGGCGAAAGUCACACAAACCGG

Variants of: B1
Test: reverse-splicing fitness (ratio to wild type); higher = more active; in vitro selection; Mg2+ level not given
How it was run: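 An in vitro group I ribozyme library with randomized positions was T7-transcribed and gel-purified. In triplicate, 10 pmol RNA in EPPS pH 7.5 was reacted with 50 pmoles of a 30-nt RNA substrate for 1 h at 37 °C across several added MgCl2 levels (1–48 mM), then stopped with EDTA. Products were reverse transcribed from a substrate-complementary primer, PCR-amplified and sequenced (HiSeq 4000). Fitness is a variant's read proportion after selection over that before, normalised to wild type.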

Variant	reverse-splicing fitness
GUGCCUUGCGCCGGGAAACCACGCAAGGGAUGGUGUCAAAUUCGGCGAAACCUAAGCGCCCGCCCGGGCGUAUGGCAACGCAGAGCCAAGCUUCGGCGCCUGCGCCGAUGUAGGUGUAGGGACUAGACGGCACCCACCUAAGGCAAACGAUAUGGUGAAGGCAUAGUCUAGGGAGCGGCGAAAGUCACACAAACCGG	0.02
GUGCCUUGCGCCGGGAAACCACGCAAGGGAUGGUGUCAAAUUCGGCGAAACCUAAGCGCCCGCCCGGGCGUAUGGCAACGCAGAGCCAAGCUUCGGCGCCUGCGCCGAUGUAGGUGUAGGGACUAGACGGCACCCACCUAAGGCAAACGAUAUGGUGAAGGCAUAGUCUAGGGAGGGGCGAAAGUCACACAAACCGG	0.00816
GUGCCUUGCGCCGGGAAACCACGCAAGGGAUGGUGUCAAAUUCGGCGAAACCUAAGCGCCCGCCCGGGCGUAUGGCAACGCAGAGCCAAGCUUCGGCGCCUGCGCCGAUGUAGGUGUAGGGACUAGACGGCACCCACCUAAGGCAAACGAUAUGGUGAAGGCAUAGUCUAGGGAGAGGCGAAAGUCACACAAACCGG	0.021
GUGCCUUGCGCCGGGAAACCACGCAAGGGAUGGUGUCAAAUUCGGCGAAACCUAAGCGCCCGCCCGGGCGUAUGGCAACGCAGAGCCAAGCUUCGGCGCCUGCGCCGAUGUAGGUGUAGGGACUAGACGGCACCCACCUAAGGCAAACGAUAUGGUGAAGGCAUAGUCCAGGGAGGGGCGAAAGUCACACAAACCGG	0.0101
GUGCCUUGCGCCGGGAAACCACGCAAGGGAUGGUGUCAAAUUCGGCGAAACCUAAGCGCCCGCCCGGGCGUAUGGCAACGCAGAGCCAAGCUUCGGCGCCUGCGCCGAUGUAGGUGUAGGGACUAGACGGCACCCACCUAAGGCAAACGAUAUGGUGAAGGCAUAGUCCAGGGAGCGGCGAAAGUCACACAAACCGG	0.0188
GUGCCUUGCGCCGGGAAACCACGCAAGGGAUGGUGUCAAAUUCGGCGAAACCUAAGCGCCCGCCCGGGCGUAUGGCAACGCAGAGCCAAGCUUCGGCGCCUGCGCCGAUGUAGGUGUAGGGACUAGACGGCACCCACCUAAGGCAAACGAUAUGGUGAAGGCAUAGUCCAGGGAGAGGCGAAAGUCACACAAACCGG	0.0123
GUGCCUUGCGCCGGGAAACCACGCAAGGGAUGGUGUCAAAUUCGGCGAAACCUAAGCGCCCGCCCGGGCGUAUGGCAACGCAGAGCCAAGCUUCGGCGCCUGCGCCGAUGUAGGUGUAGGGACUAGACGGCACCCACCUAAGGCAAACGGUAUGGUGAAGGCAUAGUCCAGGGAGAGGCGAAAGUCACACAAACCGG	0.00663
GUGCCUUGCGCCGGGAAACCACGCAAGGGAUGGUGUCAAAUUCGGCGAAACCUAAGCGCCCGCCCGGGCGUAUGGCAACGCAGAGCCAAGCUUCGGCGCCUGCGCCGAUGUAGGUGUAGGGACUAGACGGCACCCACCUAAGGCAAACGGUAUGGUGAAGGCAUAGUCCAGGGAGCGGCGAAAGUCACACAAACCGG	0.00922
GUGCCUUGCGCCGGGAAACCACGCAAGGGAUGGUGUCAAAUUCGGCGAAACCUAAGCGCCCGCCCGGGCGUAUGGCAACGCAGAGCCAAGCUUCGGCGCCUGCGCCGAUGUAGGUGUAGGGACUAGACGGCACCCACCUAAGGCAAACGGUAUGGUGAAGGCAUAGUCCAGGGAGGGGCGAAAGUCACACAAACCGG	0.00319
GUGCCUUGCGCCGGGAAACCACGCAAGGGAUGGUGUCAAAUUCGGCGAAACCUAAGCGCCCGCCCGGGCGUAUGGCAACGCAGAGCCAAGCUUCGGCGCCUGCGCCGAUGUAGGUGUAGGGACUAGACGGCACCCACCUAAGGCAAACGGUAUGGUGAAGGCAUAGUCGAGGGAGCGGCGAAAGUCACACAAACCGG	0.0044
GUGCCUUGCGCCGGGAAACCACGCAAGGGAUGGUGUCAAAUUCGGCGAAACCUAAGCGCCCGCCCGGGCGUAUGGCAACGCAGAGCCAAGCUUCGGCGCCUGCGCCGAUGUAGGUGUAGGGACUAGACGGCACCCACCUAAGGCAAACGGUAUGGUGAAGGCAUAGUCGAGGGAGAGGCGAAAGUCACACAAACCGG	0.00798
GUGCCUUGCGCCGGGAAACCACGCAAGGGAUGGUGUCAAAUUCGGCGAAACCUAAGCGCCCGCCCGGGCGUAUGGCAACGCAGAGCCAAGCUUCGGCGCCUGCGCCGAUGUAGGUGUAGGGACUAGACGGCACCCACCUAAGGCAAACGGUAUGGUGAAGGCAUAGUCGAGGGAGGGGCGAAAGUCACACAAACCGG	0.00446
GUGCCUUGCGCCGGGAAACCACGCAAGGGAUGGUGUCAAAUUCGGCGAAACCUAAGCGCCCGCCCGGGCGUAUGGCAACGCAGAGCCAAGCUUCGGCGCCUGCGCCGAUGUAGGUGUAGGGACUAGACGGCACCCACCUAAGGCAAACGGUAUGGUGAAGGCAUAGUCGAGGGAGUGGCGAAAGUCACACAAACCGG	0.00782
GUGCCUUGCGCCGGGAAACCACGCAAGGGAUGGUGUCAAAUUCGGCGAAACCUAAGCGCCCGCCCGGGCGUAUGGCAACGCAGAGCCAAGCUUCGGCGCCUGCGCCGAUGUAGGUGUAGGGACUAGACGGCACCCACCUAAGGCAAACGGUAUGGUGAAGGCAUAGUCUAGGGAGUGGCGAAAGUCACACAAACCGG	0.00851
GUGCCUUGCGCCGGGAAACCACGCAAGGGAUGGUGUCAAAUUCGGCGAAACCUAAGCGCCCGCCCGGGCGUAUGGCAACGCAGAGCCAAGCUUCGGCGCCUGCGCCGAUGUAGGUGUAGGGACUAGACGGCACCCACCUAAGGCAAACGGUAUGGUGAAGGCAUAGUCAAGGGAGUGGCGAAAGUCACACAAACCGG	0.00926
GUGCCUUGCGCCGGGAAACCACGCAAGGGAUGGUGUCAAAUUCGGCGAAACCUAAGCGCCCGCCCGGGCGUAUGGCAACGCAGAGCCAAGCUUCGGCGCCUGCGCCGAUGUAGGUGUAGGGACUAGACGGCACCCACCUAAGGCAAACGAUAUGGUGAAGGCAUAGUCGAGGGAGCGGCGAAAGUCACACAAACCGG	0.0227
GUGCCUUGCGCCGGGAAACCACGCAAGGGAUGGUGUCAAAUUCGGCGAAACCUAAGCGCCCGCCCGGGCGUAUGGCAACGCAGAGCCAAGCUUCGGCGCCUGCGCCGAUGUAGGUGUAGGGACUAGACGGCACCCACCUAAGGCAAACGAUAUGGUGAAGGCAUAGUCGAGGGAGGGGCGAAAGUCACACAAACCGG	0.0059
GUGCCUUGCGCCGGGAAACCACGCAAGGGAUGGUGUCAAAUUCGGCGAAACCUAAGCGCCCGCCCGGGCGUAUGGCAACGCAGAGCCAAGCUUCGGCGCCUGCGCCGAUGUAGGUGUAGGGACUAGACGGCACCCACCUAAGGCAAACGAUAUGGUGAAGGCAUAGUCGAGGGAGAGGCGAAAGUCACACAAACCGG	0.0215
GUGCCUUGCGCCGGGAAACCACGCAAGGGAUGGUGUCAAAUUCGGCGAAACCUAAGCGCCCGCCCGGGCGUAUGGCAACGCAGAGCCAAGCUUCGGCGCCUGCGCCGAUGUAGGUGUAGGGACUAGACGGCACCCACCUAAGGCAAACGGUAUGGUGAAGGCAUAGUCUAGGGAGGGGCGAAAGUCACACAAACCGG	0.00618
GUGCCUUGCGCCGGGAAACCACGCAAGGGAUGGUGUCAAAUUCGGCGAAACCUAAGCGCCCGCCCGGGCGUAUGGCAACGCAGAGCCAAGCUUCGGCGCCUGCGCCGAUGUAGGUGUAGGGACUAGACGGCACCCACCUAAGGCAAACGGUAUGGUGAAGGCAUAGUCUAGGGAGAGGCGAAAGUCACACAAACCGG	0.01
GUGCCUUGCGCCGGGAAACCACGCAAGGGAUGGUGUCAAAUUCGGCGAAACCUAAGCGCCCGCCCGGGCGUAUGGCAACGCAGAGCCAAGCUUCGGCGCCUGCGCCGAUGUAGGUGUAGGGACUAGACGGCACCCACCUAAGGCAAACGGUAUGGUGAAGGCAUAGUCUAGGGAGCGGCGAAAGUCACACAAACCGG	0.0145
GUGCCUUGCGCCGGGAAACCACGCAAGGGAUGGUGUCAAAUUCGGCGAAACCUAAGCGCCCGCCCGGGCGUAUGGCAACGCAGAGCCAAGCUUCGGCGCCUGCGCCGAUGUAGGUGUAGGGACUAGACGGCACCCACCUAAGGCAAACGAUAUGGUGAAGGCAUAGUCUAGGGAGUGGCGAAAGUCACACAAACCGG	0.00869
GUGCCUUGCGCCGGGAAACCACGCAAGGGAUGGUGUCAAAUUCGGCGAAACCUAAGCGCCCGCCCGGGCGUAUGGCAACGCAGAGCCAAGCUUCGGCGCCUGCGCCGAUGUAGGUGUAGGGACUAGACGGCACCCACCUAAGGCAAACGAUAUGGUGAAGGCAUAGUCGAGGGAGUGGCGAAAGUCACACAAACCGG	0.0102
GUGCCUUGCGCCGGGAAACCACGCAAGGGAUGGUGUCAAAUUCGGCGAAACCUAAGCGCCCGCCCGGGCGUAUGGCAACGCAGAGCCAAGCUUCGGCGCCUGCGCCGAUGUAGGUGUAGGGACUAGACGGCACCCACCUAAGGCAAACGGUAUGGUGAAGGCAUAGUCAAGGGAGAGGCGAAAGUCACACAAACCGG	0.0106
GUGCCUUGCGCCGGGAAACCACGCAAGGGAUGGUGUCAAAUUCGGCGAAACCUAAGCGCCCGCCCGGGCGUAUGGCAACGCAGAGCCAAGCUUCGGCGCCUGCGCCGAUGUAGGUGUAGGGACUAGACGGCACCCACCUAAGGCAAACGGUAUGGUGAAGGCAUAGUCAAGGGAGGGGCGAAAGUCACACAAACCGG	0.00672
GUGCCUUGCGCCGGGAAACCACGCAAGGGAUGGUGUCAAAUUCGGCGAAACCUAAGCGCCCGCCCGGGCGUAUGGCAACGCAGAGCCAAGCUUCGGCGCCUGCGCCGAUGUAGGUGUAGGGACUAGACGGCACCCACCUAAGGCAAACGGUAUGGUGAAGGCAUAGUCAAGGGAGCGGCGAAAGUCACACAAACCGG	0.00965
GUGCCUUGCGCCGGGAAACCACGCAAGGGAUGGUGUCAAAUUCGGCGAAACCUAAGCGCCCGCCCGGGCGUAUGGCAACGCAGAGCCAAGCUUCGGCGCCUGCGCCGAUGUAGGUGUAGGGACUAGACGGCACCCACCUAAGGCAAACGAUAUGGUGAAGGCAUAGUCAAGGGAGGGGCGAAAGUCACACAAACCGG	0.00665
GUGCCUUGCGCCGGGAAACCACGCAAGGGAUGGUGUCAAAUUCGGCGAAACCUAAGCGCCCGCCCGGGCGUAUGGCAACGCAGAGCCAAGCUUCGGCGCCUGCGCCGAUGUAGGUGUAGGGACUAGACGGCACCCACCUAAGGCAAACGAUAUGGUGAAGGCAUAGUCAAGGGAGAGGCGAAAGUCACACAAACCGG	0.0214
GUGCCUUGCGCCGGGAAACCACGCAAGGGAUGGUGUCAAAUUCGGCGAAACCUAAGCGCCCGCCCGGGCGUAUGGCAACGCAGAGCCAAGCUUCGGCGCCUGCGCCGAUGUAGGUGUAGGGACUAGACGGCACCCACCUAAGGCAAACGAUAUGGUGAAGGCAUAGUCAAGGGAGCGGCGAAAGUCACACAAACCGG	0.0237
GUGCCUUGCGCCGGGAAACCACGCAAGGGAUGGUGUCAAAUUCGGCGAAACCUAAGCGCCCGCCCGGGCGUAUGGCAACGCAGAGCCAAGCUUCGGCGCCUGCGCCGAUGUAGGUGUAGGGACUAGACGGCACCCACCUAAGGCAAACGGUAUGGUGAAGGCAUAGUCCAGGGAGUGGCGAAAGUCACACAAACCGG	0.00697
